Where no end group is shown, it is not given here.
Molecular target: T1, AQ27 (Homo sapiens, UniProt Q96P65)
T1 construct: expressed in transfected cells; host or cells: CHO cells
T1 sequence (Q96P65 1-431): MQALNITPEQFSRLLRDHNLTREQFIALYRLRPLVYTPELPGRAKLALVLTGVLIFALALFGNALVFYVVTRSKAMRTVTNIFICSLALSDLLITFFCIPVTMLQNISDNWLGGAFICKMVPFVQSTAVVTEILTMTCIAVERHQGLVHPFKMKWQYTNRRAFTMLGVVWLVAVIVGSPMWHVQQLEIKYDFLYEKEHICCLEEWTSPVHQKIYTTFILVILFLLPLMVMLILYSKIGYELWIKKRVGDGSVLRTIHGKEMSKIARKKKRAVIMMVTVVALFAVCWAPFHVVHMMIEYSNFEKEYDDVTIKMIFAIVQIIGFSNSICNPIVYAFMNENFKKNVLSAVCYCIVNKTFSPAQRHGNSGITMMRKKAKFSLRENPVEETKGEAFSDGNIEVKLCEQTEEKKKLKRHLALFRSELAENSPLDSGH
Test: Cytosensor cell activation (increase of acidification rate) in AQ27-expressing CHO cells versus mock cells
Type: cell-based
Settings: 10 µM, exposure 7 minutes and 2 seconds, AQ27-expressing CHO cells compared with mock cells
Protocol: The vertical axis represents a cycle of measurement. "•" denotes the reactivity of receptor-expressed CHO cells and "○" denotes the reactivity of mock cells.
The AQ27-expressing CHO cells and mock cells were inoculated in a capsule for Cytosensor at a concentration of 2.7 x 10^5 cells/capsule, respectively, incuvated overnight, and mounted onto Cytosensor(Molecular Device). After the acidification rare became stable, the cells were exposed to 10 µM Enkephalin-Arg-Phe amide (Bachem, H-2835) for 7 minutes and 2 seconds. The cell activation was measured using the increasing rate of the acidification rate as index.

Met-Enkephalin-Arg-Phe amide (YGGFMRF-NH2) [peptide amide purchased from Bachem, H-2835]
cell activation measured using the increasing rate of the acidification rate as index: specifically activates the AQ27-expressing CHO cells

From EP1207201A1, “NOVEL G PROTEIN-COUPLED RECEPTOR PROTEIN AND DNA THEREOF” (Takeda Chemical Industries, Ltd., priority 1999, dated 2001)
